According to patent US20090298765A1 (Takeda / Millennium, published 2009):
Non-standard residues stand in square brackets, D forms with d. No end group written: not given here. Phe(3-Cl) = N[C@@H](Cc1cccc(Cl)c1)C(=O)O; Phe(4-Cl) = N[C@@H](Cc1ccc(Cl)cc1)C(=O)O; Phe(4-NH2) = Nc1ccc(C[C@H](N)C(=O)O)cc1; Phe(2-Cl) = N[C@@H](Cc1ccccc1Cl)C(=O)O; Arg(Me) = CNC(=N)NCCC[C@H](N)C(=O)O; azaGly = NNC(=O)O

Columns and labels:
[1] = target: T1, human OT7T175 (metastin receptor) (human, UniProt Q969F8 1-398); assay: cell-based or functional assay
[2] = target: T1, human OT7T175 (metastin receptor); assay: competition with Cy-5 metastin (40-54) on hOT7T175-CHO cells, FMAT

T1 sequence (Q969F8 whole entry L364H): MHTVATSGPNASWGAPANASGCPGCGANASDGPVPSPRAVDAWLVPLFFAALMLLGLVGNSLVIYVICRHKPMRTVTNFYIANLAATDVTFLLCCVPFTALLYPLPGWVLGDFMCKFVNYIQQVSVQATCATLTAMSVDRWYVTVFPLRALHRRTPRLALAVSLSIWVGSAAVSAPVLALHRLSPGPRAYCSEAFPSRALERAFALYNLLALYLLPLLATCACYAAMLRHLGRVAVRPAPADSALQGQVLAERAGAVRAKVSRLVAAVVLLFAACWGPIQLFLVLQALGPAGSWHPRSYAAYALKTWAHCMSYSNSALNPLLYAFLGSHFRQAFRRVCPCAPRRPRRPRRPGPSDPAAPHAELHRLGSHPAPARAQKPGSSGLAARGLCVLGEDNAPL

B1: des(1)-[D-Asn2,Arg(Me)9]MS10 (peptide)
peptide: [dN]WNSFGL[Arg(Me)]F-NH2
modifications: N-terminus assumed
SMILES: CNC(=N)NCCC[C@H](NC(=O)[C@H](CC(C)C)NC(=O)CNC(=O)[C@H](Cc1ccccc1)NC(=O)[C@H](CO)NC(=O)[C@H](CC(N)=O)NC(=O)[C@H](Cc1c[nH]c2ccccc12)NC(=O)[C@H](N)CC(N)=O)C(=O)N[C@@H](Cc1ccccc1)C(N)=O
notes: also called Compound No. 216
B1 was tested, and the “Ca ion level-increasing activity (FLIPR)” value [1] was 1 x Metastin (1-54) and the IC50 [2] was 700 nM.

B2: des(1)-[D-Tyr2,Thr3,Arg(Me)9]MS10 (peptide)
peptide: [dY]TNSFGL[Arg(Me)]F-NH2
modifications: N-terminus assumed
SMILES: CNC(=N)NCCC[C@H](NC(=O)[C@H](CC(C)C)NC(=O)CNC(=O)[C@H](Cc1ccccc1)NC(=O)[C@H](CO)NC(=O)[C@H](CC(N)=O)NC(=O)[C@@H](NC(=O)[C@H](N)Cc1ccc(O)cc1)[C@@H](C)O)C(=O)N[C@@H](Cc1ccccc1)C(N)=O
notes: also called Compound No. 227
In the case of B2, the “Ca ion level-increasing activity (FLIPR)” value [1] is reported as 1 x Metastin (1-54) and the IC50 [2] is reported as 48 nM.

B3: des(1)-[D-Asn2,D-Trp3,Arg(Me)9]MS10 (peptide)
peptide: [dN][dW]NSFGL[Arg(Me)]F-NH2
modifications: N-terminus assumed
SMILES: CNC(=N)NCCC[C@H](NC(=O)[C@H](CC(C)C)NC(=O)CNC(=O)[C@H](Cc1ccccc1)NC(=O)[C@H](CO)NC(=O)[C@H](CC(N)=O)NC(=O)[C@@H](Cc1c[nH]c2ccccc12)NC(=O)[C@H](N)CC(N)=O)C(=O)N[C@@H](Cc1ccccc1)C(N)=O
notes: also called Compound No. 225
B3 was tested, and the “Ca ion level-increasing activity (FLIPR)” value [1] was 1 x Metastin (1-54) and the IC50 [2] was 410 nM.

B4: des(1)-[D-Tyr2,Phe3,AzaGly7,Arg(Me)9]MS10 (peptide)
peptide: [dY]FNSF[azaGly]L[Arg(Me)]F-NH2
modifications: N-terminus assumed
SMILES: CNC(=N)NCCC[C@H](NC(=O)[C@H](CC(C)C)NC(=O)NNC(=O)[C@H](Cc1ccccc1)NC(=O)[C@H](CO)NC(=O)[C@H](CC(N)=O)NC(=O)[C@H](Cc1ccccc1)NC(=O)[C@H](N)Cc1ccc(O)cc1)C(=O)N[C@@H](Cc1ccccc1)C(N)=O
notes: also called Compound No. 254
In the case of B4, the “Ca ion level-increasing activity (FLIPR)” value [1] is reported as 1 x Metastin (1-54) and the IC50 [2] is reported as 11 nM.

B5: des(1)-[D-Tyr2,Ser3,Arg(Me)9]MS10 (peptide)
peptide: [dY]SNSFGL[Arg(Me)]F-NH2
modifications: N-terminus assumed
SMILES: CNC(=N)NCCC[C@H](NC(=O)[C@H](CC(C)C)NC(=O)CNC(=O)[C@H](Cc1ccccc1)NC(=O)[C@H](CO)NC(=O)[C@H](CC(N)=O)NC(=O)[C@H](CO)NC(=O)[C@H](N)Cc1ccc(O)cc1)C(=O)N[C@@H](Cc1ccccc1)C(N)=O
notes: also called Compound No. 226
With B5 the “Ca ion level-increasing activity (FLIPR)” value [1] was 1 x Metastin (1-54) and the IC50 [2] was 100 nM.

B6: des(1)-[D-Tyr2,Ile3,Arg(Me)9]MS10 (peptide)
peptide: [dY]INSFGL[Arg(Me)]F-NH2
modifications: N-terminus assumed
SMILES: CC[C@H](C)[C@H](NC(=O)[C@H](N)Cc1ccc(O)cc1)C(=O)N[C@@H](CC(N)=O)C(=O)N[C@@H](CO)C(=O)N[C@@H](Cc1ccccc1)C(=O)NCC(=O)N[C@@H](CC(C)C)C(=O)N[C@@H](CCCNC(=N)NC)C(=O)N[C@@H](Cc1ccccc1)C(N)=O
notes: also called Compound No. 228
B6 was tested, and the “Ca ion level-increasing activity (FLIPR)” value [1] was 5 x Metastin (1-54) and the IC50 [2] was 40 nM.

B7: [D-Tyr1,Ala3,AzaGly7,Arg(Me)9]MS10 (peptide)
peptide: [dY]NANSF[azaGly]L[Arg(Me)]F-NH2
modifications: N-terminus assumed
SMILES: CNC(=N)NCCC[C@H](NC(=O)[C@H](CC(C)C)NC(=O)NNC(=O)[C@H](Cc1ccccc1)NC(=O)[C@H](CO)NC(=O)[C@H](CC(N)=O)NC(=O)[C@H](C)NC(=O)[C@H](CC(N)=O)NC(=O)[C@H](N)Cc1ccc(O)cc1)C(=O)N[C@@H](Cc1ccccc1)C(N)=O
notes: also called Compound No. 235
B7 was tested, and the “Ca ion level-increasing activity (FLIPR)” value [1] was 1 x Metastin (1-54) and the IC50 [2] was 100 nM.

[dY]N[Phe(3-Cl)]NSF[azaGly]L[Arg(Me)]F-NH2 (also called Compound No. 248) [[D-Tyr1,Phe(3Cl)3,AzaGly7,Arg(Me)9]MS10] was tested, and the “Ca ion level-increasing activity (FLIPR)” value [1] was 2 x Metastin (1-54) and the IC50 [2] was 58 nM.

B8: [D-Tyr1,Ala7,Arg(Me)9]MS10 (peptide)
peptide: [dY]NWNSFAL[Arg(Me)]F-NH2
modifications: N-terminus assumed
SMILES: CNC(=N)NCCC[C@H](NC(=O)[C@H](CC(C)C)NC(=O)[C@H](C)NC(=O)[C@H](Cc1ccccc1)NC(=O)[C@H](CO)NC(=O)[C@H](CC(N)=O)NC(=O)[C@H](Cc1c[nH]c2ccccc12)NC(=O)[C@H](CC(N)=O)NC(=O)[C@H](N)Cc1ccc(O)cc1)C(=O)N[C@@H](Cc1ccccc1)C(N)=O
notes: also called Compound No. 204
For B8, the “Ca ion level-increasing activity (FLIPR)” value [1] was 5 x Metastin (1-54) and the IC50 [2] was 680 nM.

In the case of [dY]QWNSFGL[Arg(Me)]F-NH2 (also called Compound No. 214) [[D-Tyr1,Gln2,Arg(Me)9]MS10], the “Ca ion level-increasing activity (FLIPR)” value [1] is reported as 10 x Metastin (1-54) and the IC50 [2] is reported as 390 nM.

B9: [D-Tyr1,Phe(4Cl)3,AzaGly7,Arg(Me)9]MS10 (peptide)
peptide: [dY]N[Phe(4-Cl)]NSF[azaGly]L[Arg(Me)]F-NH2
modifications: N-terminus assumed
SMILES: CNC(=N)NCCC[C@H](NC(=O)[C@H](CC(C)C)NC(=O)NNC(=O)[C@H](Cc1ccccc1)NC(=O)[C@H](CO)NC(=O)[C@H](CC(N)=O)NC(=O)[C@H](Cc1ccc(Cl)cc1)NC(=O)[C@H](CC(N)=O)NC(=O)[C@H](N)Cc1ccc(O)cc1)C(=O)N[C@@H](Cc1ccccc1)C(N)=O
notes: also called Compound No. 249
In the case of B9, the “Ca ion level-increasing activity (FLIPR)” value [1] is reported as 1 x Metastin (1-54) and the IC50 [2] is reported as 150 nM.

B10: [D-Tyr1,Phe(2Cl)3,AzaGly7,Arg(Me)9]MS10 (peptide)
peptide: [dY]N[Phe(2-Cl)]NSF[azaGly]L[Arg(Me)]F-NH2
modifications: N-terminus assumed
SMILES: CNC(=N)NCCC[C@H](NC(=O)[C@H](CC(C)C)NC(=O)NNC(=O)[C@H](Cc1ccccc1)NC(=O)[C@H](CO)NC(=O)[C@H](CC(N)=O)NC(=O)[C@H](Cc1ccccc1Cl)NC(=O)[C@H](CC(N)=O)NC(=O)[C@H](N)Cc1ccc(O)cc1)C(=O)N[C@@H](Cc1ccccc1)C(N)=O
notes: also called Compound No. 247
B10 was tested, and the “Ca ion level-increasing activity (FLIPR)” value [1] was 1 x Metastin (1-54) and the IC50 [2] was 45 nM.

B11: [D-Tyr1,Ile3,AzaGly7,Arg(Me)9]MS10 (peptide)
peptide: [dY]NINSF[azaGly]L[Arg(Me)]F-NH2
modifications: N-terminus assumed
SMILES: CC[C@H](C)[C@H](NC(=O)[C@H](CC(N)=O)NC(=O)[C@H](N)Cc1ccc(O)cc1)C(=O)N[C@@H](CC(N)=O)C(=O)N[C@@H](CO)C(=O)N[C@@H](Cc1ccccc1)C(=O)NNC(=O)N[C@@H](CC(C)C)C(=O)N[C@@H](CCCNC(=N)NC)C(=O)N[C@@H](Cc1ccccc1)C(N)=O
notes: also called Compound No. 233
With B11 the “Ca ion level-increasing activity (FLIPR)” value [1] was 1 x Metastin (1-54) and the IC50 [2] was 23 nM.

B12: [D-Tyr1,Phe(4NH2)3,AzaGly7,Arg(Me)9]MS10 (peptide)
peptide: [dY]N[Phe(4-NH2)]NSF[azaGly]L[Arg(Me)]F-NH2
modifications: N-terminus assumed
SMILES: CNC(=N)NCCC[C@H](NC(=O)[C@H](CC(C)C)NC(=O)NNC(=O)[C@H](Cc1ccccc1)NC(=O)[C@H](CO)NC(=O)[C@H](CC(N)=O)NC(=O)[C@H](Cc1ccc(N)cc1)NC(=O)[C@H](CC(N)=O)NC(=O)[C@H](N)Cc1ccc(O)cc1)C(=O)N[C@@H](Cc1ccccc1)C(N)=O
notes: also called Compound No. 250
With B12 the “Ca ion level-increasing activity (FLIPR)” value [1] was 1 x Metastin (1-54) and the IC50 [2] was 3.7 nM.

For [dY]NFNSF[azaGly]L[Arg(Me)]F-NH2 (also called Compound No. 244) [[D-Tyr1,Phe3,AzaGly7,Arg(Me)9]MS10], the “Ca ion level-increasing activity (FLIPR)” value [1] was 1 x Metastin (1-54) and the IC50 [2] was 77 nM.
